Experimental data from patent US20090192100, “NOVEL USE OF SPIEGELMERS” (published 2009).

Biological target: T1, HMGA1b-His6 (Homo sapiens, S2G)
T1 chain: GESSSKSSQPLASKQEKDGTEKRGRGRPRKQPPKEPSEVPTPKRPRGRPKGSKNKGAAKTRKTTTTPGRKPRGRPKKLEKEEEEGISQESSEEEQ
Assay: streptavidin plate assay with nickel-HRP detection; poly(dGdC) competitor
Conditions: tags: C-terminal L-GSLNS-His6 (vector pHO2d), expressed in E. coli BL21; label: 5'-biotin on 34 nt strand
Method: The detection of HMGA1b-His6 bound to DNA is carried out with horseradish peroxidase modified with nickel (Nickel-HRP), which transforms a fluorogenic substrate. In this assay the spiegelmer displaces the recombinant HMGA1b from its natural binding partner. On account of the 1:1:1 stoichiometry of spiegelmer/rHMGA1b/dsDNA AT Hook, a direct prediction can be made regarding the affinity of the spiegelmers for HMGA1b. The principle of the assay is illustrated in FIG. 5.
To carry out this test spiegelmers in various concentrations and HMGA1b-His6 (0.36 μg/ml; ca. 30 nM) in a total volume of 100 μl are incubated for 10 minutes in a tapered floor plate at room temperature while shaking. The incubation solution also contains: 25 mM Tris/HCl, pH 7.0 (Ambion, Austin, Tex., USA), 140 mM KCl (Ambion, Austin, Tex., USA), 12 mM NaCl (Ambion, Austin, Tex., USA), 0.8 mM MgCl2 (Ambion, Austin, Tex., USA), 0.25 mg/ml BSA (Roche, Mannheim, Germany), 1 mM DTT (Invitrogen, Karlsruhe, Germany), 18-20 μg/ml poly(dGdC) (Sigma, Deisenhofen, Germany)), 0.05% Tween 20 (Roche, Mannheim, Germany). […]
100 μl of the fluorogenic HRP substrate (QuantaBlue, Pierce, Bonn, Germany) are then added to each well and the fluorescence is measured after 15 mins (ex: 340/em: 405 nm).

B1: dsDNA AT hook (dsDNA)
DNA 1: TCGAAAAAAGCAAAAAAAAAAAAAAAAAACTGGC
DNA 2: GCCAGTTTTTTTTTTTTTTTTTTGCTTTTTT
- binding result: binds
